From patent US20170088605A1 (Novartis, published 2017)
Where two headings read alike, the source gives them in different places.

T1: BKV serotype I infectious virus (VP1) (BK virus serotype I, UniProt P03088 1-362)
T1 sequence (looked up): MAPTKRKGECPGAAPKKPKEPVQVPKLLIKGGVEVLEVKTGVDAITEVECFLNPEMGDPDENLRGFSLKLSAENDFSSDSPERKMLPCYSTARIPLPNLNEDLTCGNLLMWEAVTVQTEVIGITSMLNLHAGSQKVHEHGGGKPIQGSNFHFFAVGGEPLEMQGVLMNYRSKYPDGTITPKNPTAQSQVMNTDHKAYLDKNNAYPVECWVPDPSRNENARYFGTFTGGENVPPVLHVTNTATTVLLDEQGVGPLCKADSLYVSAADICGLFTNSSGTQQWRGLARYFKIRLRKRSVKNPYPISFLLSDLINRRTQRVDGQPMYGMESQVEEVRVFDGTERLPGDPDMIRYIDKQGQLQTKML

T2: BKV serotype I VLP (BK virus serotype I, UniProt P03088 1-362)
T2 chain: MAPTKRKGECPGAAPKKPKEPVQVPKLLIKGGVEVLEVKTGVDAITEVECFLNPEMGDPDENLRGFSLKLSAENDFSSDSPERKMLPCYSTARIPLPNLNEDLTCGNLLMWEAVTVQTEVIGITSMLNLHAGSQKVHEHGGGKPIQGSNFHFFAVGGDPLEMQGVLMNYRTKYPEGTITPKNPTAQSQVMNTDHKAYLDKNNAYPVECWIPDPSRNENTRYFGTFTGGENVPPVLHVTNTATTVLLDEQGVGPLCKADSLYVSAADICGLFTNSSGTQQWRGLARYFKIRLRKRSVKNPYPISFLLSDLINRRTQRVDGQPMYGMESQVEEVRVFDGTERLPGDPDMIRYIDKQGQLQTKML


Assays:
[1] = biological target: pooled RAV virus (BKV serotype I, 20 amino acid changes throughout VP1) (BK virus serotype I); assay: cell-based or functional assay
[2] = biological target: BKV serotype III chimeric infectious virus (VP1 of isolate AS) (BK virus serotype III); assay: cell-based or functional assay
[3] = biological target: BKV serotype IV chimeric infectious virus (VP1 of strain ITA-4) (BK virus serotype IV); assay: cell-based or functional assay
[4] = biological target: T1, BKV serotype I infectious virus (VP1); assay: cell-based or functional assay
[5] = biological target: T3, BKV serotype II chimeric infectious virus (VP1 of isolate SB) (BK virus serotype II); assay: cell-based or functional assay
[6] = biological target: T4, JCV infectious virus, isolates Mad-1 and Mad-4 (VP1) (JC virus); assay: cell-based or functional assay
[7] = biological target: T5, BKV serotype IV VP1 pentamer (BK virus serotype IV, UniProt P14996 30-297); assay: SET (solution equilibrium titration) on VP1 pentamers
T5 construct: also called serotype IV pentamers

[8] = biological target: T6, BKV serotype III VP1 pentamer (BK virus serotype III, UniProt P14996 30-297); assay: as above
T6 construct: also called serotype III pentamers

[9] = biological target: T7, BKV serotype I VP1 pentamer (BK virus serotype I, UniProt P03088 30-297); assay: as above
T7 construct: also called serotype I pentamers; BKV-VP1 serotype I pentameric protein

[10] = biological target: T8, BKV serotype II VP1 pentamer (BK virus serotype II, UniProt P14996 30-297); assay: as above
T8 construct: also called serotype II pentamers

JCV VLP (consensus) [11] = biological target: T9, JCV VLP (consensus) (JC virus, UniProt P03089 1-354); assay: ELISA on coated JCV VLPs
T9 construct: also called JCV VLPs; JC virus VLPs

[12] = biological target: T4, JCV infectious virus, isolates Mad-1 …; assay: cell-based or functional assay; remark: listed apart in the source
JCV VLP (consensus) [13] = biological target: T9, JCV VLP (consensus); assay: ELISA on plates coated with JCV VLPs, OD 450 nm
[14] = biological target: T1, BKV serotype I infectious virus (VP1); assay: cell-based or functional assay; remark: listed apart in the source
BKV serotype I VLP = biological target: T2, BKV serotype I VLP
[15] = biological target: T3, BKV serotype II chimeric infectious …; assay: cell-based or functional assay; remark: listed apart in the source

Binder	neutralization EC50 [2] [µg/mL]	neutralization EC90 [2] [µg/mL]	neutralization EC50 [3] [µg/mL]	neutralization EC90 [3] [µg/mL]	neutralization EC50 [4] [µg/mL]	neutralization EC90 [4] [µg/mL]	neutralization EC50 [5] [µg/mL]	neutralization EC90 [5] [µg/mL]	Kd [7] [pM]	Kd [8] [pM]	Kd [9] [pM]	Kd [10] [pM]	further results
P8D11 (antibody, human IgG1, lambda) heavy: not shown light: QSVLTQPPSVSVAPGKTARITCGGDNIGSRPVHWYQQKPGQAPILVVYDDSNRPSGIPERFSGSNSGNTATLTISRVEAGDEADYYCQVWSSSTDHPFGGGTKVTVLGQPKAAPSVTLFPPSSEELQANKATLVCLISDFYPGAVTVAWKADSSPVKAGVETTTPSKQSNNKYAASSYLSLTPEQWKSHRSYSCQVTHEGSTVEKTVAPTECS	0.092	0.53	0.023	0.39	0.015	0.24	0.089	6.34					EC50 of neutralization, fold change against wild-type virus [1]: 3.9 fold; neutralization EC50 [6]: 0.09 µg/mL; neutralization EC90 [6]: 2.76 µg/mL
P8D11B (antibody, V domains shown) VH: QVQLVESGGTLVQPGGSLRLSCAASGFTFKNYWMTWVRQAPGKGLEWVANIKKDGSEKYYVDSVRGRFTISRDNAKNSLFLQMNSLRPEDTAVYFCATVRSGRYFALDDWGQGTLVTVSS VL: QSVLTQPPSVSVAPGKTARITCGGDNIGSRPVHWYQQKPGQAPILVVYDDSNRPSGIPERFSGSNSGNTATLTISRVEAGDEADYYCQVWSSSTDHPFGGGTKVTVLG	0.014	0.5	0.005	0.54	0.003	0.3	0.088	1.93	2.9	2.5	3.8	1.8	
P8D11D (antibody) heavy: not shown light: QSVLTQPPSVSVAPGKTARITCGGDNIGSRPVHWYQQKPGQAPILVVYDDSNRPSGIPERFSGSNSGNTATLTISRVEAGDEADYYCQVWSSSTDHPFGGGTKVTVLGQPKAAPSVTLFPPSSEELQANKATLVCLISDFYPGAVTVAWKADSSPVKAGVETTTPSKQSNNKYAASSYLSLTPEQWKSHRSYSCQVTHEGSTVEKTVAPTECS	0.185	0.87	0.003	0.063	0.034	0.15	0.161	1.64	3.2	5	5	2	
P8D11C (antibody, V domains shown) VH: QVQLVESGGTLVQPGGSLRLSCAASGFTFQNYWMTWVRQAPGKGLEWVANIKKDGSEKYYVDSVRGRFTISRDNAKNSLFLQMNSLRPEDTAVYFCATVRSGRYFALDDWGQGTLVTVSS VL: QSVLTQPPSVSVAPGKTARITCGGDNIGSRPVHWYQQKPGQAPILVVYDDSNRPSGIPERFSGSNSGNTATLTISRVEAGDEADYYCQVWSSSTDHPFGGGTKVTVLG	0.049	0.51	0.005	0.54	0.0003	0.34	0.18	0.5	2.7	4.8	4.5	2.7	
P8D11E (antibody) heavy: not shown light: QSVLTQPPSVSVAPGKTARITCGGDNIGSRPVHWYQQKPGQAPILVVYDDSNRPSGIPERFSGSNSGNTATLTISRVEAGDEADYYCQVWSSSTDHPFGGGTKVTVLGQPKAAPSVTLFPPSSEELQANKATLVCLISDFYPGAVTVAWKADSSPVKAGVETTTPSKQSNNKYAASSYLSLTPEQWKSHRSYSCQVTHEGSTVEKTVAPTECS	0.236	0.9	0.002	0.087	0.032	0.11	0.144	2.52	2.7	6	4.3	1.7	
P8D11A (antibody, V domains shown) VH: QVQLVESGGTLVQPGGSLRLSCAASGFTFSNYWMTWVRQAPGKGLEWVANIKKDGSEKYYVDSVRGRFTISRDNAKNSLFLQMNSLRPEDTAVYFCATVRSGRYFALDDWGQGTLVTVSS VL: QSVLTQPPSVSVAPGKTARITCGGDNIGSRPVHWYQQKPGQAPILVVYDDSNRPSGIPERFSGSNSGNTATLTISRVEAGDEADYYCQVWSSSTDHPFGGGTKVTVLG	0.01	0.59	0.015	0.064	0.005	0.19	0.029	8.68	2.9	3.7	4.4	2.5	
2077-28-2 (antibody, V domains shown) VH: EVQLQQSGPELVKPGASMKISCKASGYSFTGYTMNWVKQSHGKNLEWIGLFNPYNGGATYNQRFKGKATLTVDKSSSTAYMDLLSLTSEDSAVYYCTRLRKYGIGDDFFDYWGQGTTLTVSS VL: DIVMTQSHKFMSTSVGDRVSITCKASQDVGTAVAWYQQKPGQSPKLLIYWASTRHTGVPDRFTGSGSGTDFTLTISNVQSEDLADYFCQQYSTYTYTFGGGTKLEIK													IC50 (JCV VLP (consensus) [11]): 88 pM; neutralization EC50 [12]: 0.347 µg/mL; neutralization EC90 [12]: 6.82 µg/mL; EC50 (read off the curve) (JCV VLP (consensus) [13]): ~90 pM
2081-36-8 (antibody, V domains shown) VH: QVQLQQSGAGLVRPGSSVKISCKTSGYAFSSYWMNWVKQRPGQGLEWIGQIYPGNGDTNYNGKFKGKATLTADKSSNTAYIQLNSLTSEDSAVYFCAREARQGYHYAMDYWGQGTSVTVSL VL: EIVFTQSPTTMAAFPGEKITITCSASSMINSNYLHWYQQKPGFSPKVLIYRTSNLASGVPARFSGTGSGTSFSLTIGTMEAEDVATYYCQQGSNIFTFGSGTKLEIK													neutralization EC50 [14]: 0.147 µg/mL; neutralization EC90 [14]: 0.909 µg/mL; EC50 (read off the curve) (BKV serotype I VLP): ~300 pM
NEG447A (antibody, human IgG1, lambda, V domains shown) VH: QVQLQESGPGLVKPSETLSLTCTVSGGSISRDYWSWVRQPPGAGLEWIGNIYYSGSTNYNPSLKSRVTISVATNKKQFSLKLTSVTAADTAVYYCARVPGCSSTSCIDGWFDPWGQGILVTVSS VL: QSVLTQPPSVSAAPGQKVTISCSGSSSNIGNTYVSWYQQLPGTAPKLLIYDNNKRPSGIPDRFSGSKSGTSATLGITGLQTGDEADYYCGTWDSSLSAWVFGGGTRLTVLG	> 100	> 100	0.011	0.26	0.0001	0.094	0.11	0.84					activity (EC90), fold more potent than NEG447 [15]: ~8 fold
